Experimental data: doi:10.1101/2022.03.10.483744 (bioRxiv, 2022)
Several values for one entry are separate records, joined by “and”; a condition that tells them apart may be missing. Equal entries are not always repeated.

Columns and labels:
CLPB-NBD^E425Q (human) = CLPB-NBD^E425Q (human) (UniProt Q9H078); assay: cryo-EM structure
[1] = target: CLPB-NBD (NBD-only variant, N-terminal ANK domain truncated) (human) (UniProt Q9H078); assay: cryo-EM 2D classification
CLPB^isoform1 (human) = assay: cryo-EM 2D classification
cryo-EM structure = target: the molecule itself; assay: cryo-EM structure
[2] = target: the molecule itself; assay: SEC + other: negative-staining EM
SEC = target: the molecule itself; assay: SEC

With “CLPB-NBD^E425Q (from UniProt Q9H078-2 1-677) (domain or fragment)” the stoichiometry N (CLPB-NBD^E425Q (human)) was 6 and 7 and 9.

With “CLPB-NBD (NBD-only variant, N-terminal ANK domain truncated) (from UniProt Q9H078-2 1-677) (domain or fragment)” the stoichiometry N [1] was 6 and 7.

For CLPB^isoform1 (natural protein), the stoichiometry N (CLPB^isoform1 (human)) was 14.

B1: CLPB-N127 (human CLPB isoform 2 starting from the PARL cleavage site) (natural protein)
chain: YSKSPSNKDAALLEAARANNMQEVSRLLSEGADVNAKHRLGWTALMVAAINRNNSVVQVLLAAGADPNLGDDFSSVYKTAKEQGIHSLEVLITREDDFNNRLNNRASFKGCTALHYAVLADDYRTVKELLDGGANPLQRNEMGHTPLDYAREGEVMKLLRTSEAKYQEKQRKREAEERRRFPLEQRLKEHIIGQESAIATVGAAIRRKENGWYDEEHPLVFLFLGSSGIGKTELAKQTAKYMHKDAKKGFIRLDMSEFQERHEVAKFIGSPPGYVGHEEGGQLTKKLKQCPNAVVLFDEVDKAHPDVLTIMLQLFDEGRLTDGKGKTIDCKDAIFIMTSNVASDEIAQHALQLRQEALEMSRNRIAENLGDVQISDKITISKNFKENVIRPILKAHFRRDEFLGRINEIVYFLPFCHSELIQLVNKELNFWAKRAKQRHNITLLWDREVADVLVDGYNVHYGARSIKHEVERRVVNQLAAAYEQDLLPGGCTLRITVEDSDKQLLKSPELPSPQAEKRLPKLRLEIIDKDSKTRRLDIRAPLHPEKVCNTI
For B1, the “stoichiometry N” value (cryo-EM structure) was 14.

B2: CLPB^R227E (natural protein)
chain: YSKSPSNKDAALLEAARANNMQEVSRLLSEGADVNAKHRLGWTALMVAAINRNNSVVQVLLAAGADPNLGDDFSSVYKTAKEQGIHSLEVLITREDDFNNELNNRASFKGCTALHYAVLADDYRTVKELLDGGANPLQRNEMGHTPLDYAREGEVMKLLRTSEAKYQEKQRKREAEERRRFPLEQRLKEHIIGQESAIATVGAAIRRKENGWYDEEHPLVFLFLGSSGIGKTELAKQTAKYMHKDAKKGFIRLDMSEFQERHEVAKFIGSPPGYVGHEEGGQLTKKLKQCPNAVVLFDEVDKAHPDVLTIMLQLFDEGRLTDGKGKTIDCKDAIFIMTSNVASDEIAQHALQLRQEALEMSRNRIAENLGDVQISDKITISKNFKENVIRPILKAHFRRDEFLGRINEIVYFLPFCHSELIQLVNKELNFWAKRAKQRHNITLLWDREVADVLVDGYNVHYGARSIKHEVERRVVNQLAAAYEQDLLPGGCTLRITVEDSDKQLLKSPELPSPQAEKRLPKLRLEIIDKDSKTRRLDIRAPLHPEKVCNTI
B2: binds [2].

B3: CLPB^E425Q (Walker B mutant of CLPB-N127) (natural protein)
chain: YSKSPSNKDAALLEAARANNMQEVSRLLSEGADVNAKHRLGWTALMVAAINRNNSVVQVLLAAGADPNLGDDFSSVYKTAKEQGIHSLEVLITREDDFNNRLNNRASFKGCTALHYAVLADDYRTVKELLDGGANPLQRNEMGHTPLDYAREGEVMKLLRTSEAKYQEKQRKREAEERRRFPLEQRLKEHIIGQESAIATVGAAIRRKENGWYDEEHPLVFLFLGSSGIGKTELAKQTAKYMHKDAKKGFIRLDMSEFQERHEVAKFIGSPPGYVGHEEGGQLTKKLKQCPNAVVLFDQVDKAHPDVLTIMLQLFDEGRLTDGKGKTIDCKDAIFIMTSNVASDEIAQHALQLRQEALEMSRNRIAENLGDVQISDKITISKNFKENVIRPILKAHFRRDEFLGRINEIVYFLPFCHSELIQLVNKELNFWAKRAKQRHNITLLWDREVADVLVDGYNVHYGARSIKHEVERRVVNQLAAAYEQDLLPGGCTLRITVEDSDKQLLKSPELPSPQAEKRLPKLRLEIIDKDSKTRRLDIRAPLHPEKVCNTI
In the case of B3, the “stoichiometry N” value (cryo-EM structure) is reported as 12.

B4: CLPB^R178E (natural protein)
chain: YSKSPSNKDAALLEAARANNMQEVSRLLSEGADVNAKHRLGWTALMVAAINENNSVVQVLLAAGADPNLGDDFSSVYKTAKEQGIHSLEVLITREDDFNNRLNNRASFKGCTALHYAVLADDYRTVKELLDGGANPLQRNEMGHTPLDYAREGEVMKLLRTSEAKYQEKQRKREAEERRRFPLEQRLKEHIIGQESAIATVGAAIRRKENGWYDEEHPLVFLFLGSSGIGKTELAKQTAKYMHKDAKKGFIRLDMSEFQERHEVAKFIGSPPGYVGHEEGGQLTKKLKQCPNAVVLFDEVDKAHPDVLTIMLQLFDEGRLTDGKGKTIDCKDAIFIMTSNVASDEIAQHALQLRQEALEMSRNRIAENLGDVQISDKITISKNFKENVIRPILKAHFRRDEFLGRINEIVYFLPFCHSELIQLVNKELNFWAKRAKQRHNITLLWDREVADVLVDGYNVHYGARSIKHEVERRVVNQLAAAYEQDLLPGGCTLRITVEDSDKQLLKSPELPSPQAEKRLPKLRLEIIDKDSKTRRLDIRAPLHPEKVCNTI
B4: binds [2].

B5: CLPB^Δ201-232 (natural protein)
chain: YSKSPSNKDAALLEAARANNMQEVSRLLSEGADVNAKHRLGWTALMVAAINRNNSVVQVLLAAGADPNLGDDFSSFKGCTALHYAVLADDYRTVKELLDGGANPLQRNEMGHTPLDYAREGEVMKLLRTSEAKYQEKQRKREAEERRRFPLEQRLKEHIIGQESAIATVGAAIRRKENGWYDEEHPLVFLFLGSSGIGKTELAKQTAKYMHKDAKKGFIRLDMSEFQERHEVAKFIGSPPGYVGHEEGGQLTKKLKQCPNAVVLFDEVDKAHPDVLTIMLQLFDEGRLTDGKGKTIDCKDAIFIMTSNVASDEIAQHALQLRQEALEMSRNRIAENLGDVQISDKITISKNFKENVIRPILKAHFRRDEFLGRINEIVYFLPFCHSELIQLVNKELNFWAKRAKQRHNITLLWDREVADVLVDGYNVHYGARSIKHEVERRVVNQLAAAYEQDLLPGGCTLRITVEDSDKQLLKSPELPSPQAEKRLPKLRLEIIDKDSKTRRLDIRAPLHPEKVCNTI
B5: binds (SEC).
